Measured values as given in patent US20220372159A1.

Target: CD84 on CD4+ T cells of wild-type mice (mouse) (UniProt Q18PI6)
Experiment: cell-based or functional assay

Sequence of UniProt Q18PI6 (Q18PI6 22-329): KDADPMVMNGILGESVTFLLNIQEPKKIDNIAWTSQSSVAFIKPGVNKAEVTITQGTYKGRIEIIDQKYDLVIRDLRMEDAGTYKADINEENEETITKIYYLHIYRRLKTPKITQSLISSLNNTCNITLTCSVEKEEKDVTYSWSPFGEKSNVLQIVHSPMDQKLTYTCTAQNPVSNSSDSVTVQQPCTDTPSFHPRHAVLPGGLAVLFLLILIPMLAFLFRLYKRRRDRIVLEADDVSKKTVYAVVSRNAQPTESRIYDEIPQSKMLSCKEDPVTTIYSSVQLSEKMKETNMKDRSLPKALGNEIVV

distance and speed of migrating T cells (migration assay with platelet releasate): 25%
Substance: platelet-derived soluble CD84 (sCD84) in the releasate of GPVI-stimulated WT mouse platelets (from UniProt Q18PI6 22-221) (receptor)
